The results in this text go back to the nanobody polyreactivity screen of Harvey et al. (2022).

The nature of this data set: yeast display, Sf9 membrane polyspecificity reagent, FACS + sequencing; frameworks hold sequencing errors. Summed up:
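Sorting gates, low and high (top ~1%), were placed on anti-HA fluorescence to track expression and on streptavidin fluorescence to track reagent binding. A clone's polyreactivity label is taken from the gate it came out of. The reagent was 10% biotinylated, detergent-solubilized Sf9 membrane, applied for 1 hour at 4 °C to galactose-induced yeast display cells.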
Take “QDQLVDSGGGLVQAGGSLRLSCAASGRIIFYYTMGSYSQAPGKESELVAAINSTGSTNYADSVKGRFTISRDNAKNTVYLQMNSLKPEDTAVYYCNAGTRYIFLYPPFLGAAFDYWGQGTQVTVSS”: the “polyreactivity (PSR sort gate)” value is recorded as “low polyreactivity”.
In the case of “QDQLVDSGGGLVQAGGSLRLSCAASGSIFPIYAMGGYRQAPGKERELVAAIDWGDGSTSYADSVKGRFTISRDNAKNTVYLQMNSLKPEDTAVYYCAARSVFDLVYYNLIFDYWGQGTQVTVSS”, the “polyreactivity (PSR sort gate)” value is “high polyreactivity”.
For “QDQLVDSGGGLVQAGGSLRLSSSDSGSIFRYYTMGWYRQSPGKERELVARISSSRSTNYADSVKGRFTISRDNAKNTVYLQMNSLKPEDTEVYYCAARAFSWAGFYYWGQGTQVTVSS”, the “polyreactivity (PSR sort gate)” value is “low polyreactivity”.
Consider “QDQLVDSGGRLVQGGGSLRLSCAASGYIFIWYDMGWYRQAPGKERELVAAISGSGGYTYYADSVKGRFTISRDNAKNTVFLQMNSLKPEDTAVYYCAAYVARGNSEVIAMDYWGQGTQVTVSS”, for which the “polyreactivity (PSR sort gate)” value is “low polyreactivity”.
In the case of “QDQLVDSGVCLVQARGSLRLSCAASGRIFDAYTMGWYRQAPGKESELVASITGRDGSTYYADSVKGRFTISRDNAKNTVYLQMNSLKPEDTAVDYCNAKYSSFGIRYNYWGQGTQVTVSS”, the “polyreactivity (PSR sort gate)” value was “high polyreactivity”.
Regarding “QDQLVESAAGLVQAGGSLRLSCAASGSTFATYAMGWYRKAPGKERELVAAITASGGRTFYADSVKGRFTLSRDNAKNTVYLQMNSLKPEDPAVYYCAKRGDYVPYTFDYWGQGTQVTVSS”, the “polyreactivity (PSR sort gate)” value is “high polyreactivity”.
In the case of “QDQLVESAGGIVQAGGRLRLSCAASGTLYINVMGWYRQSPGKERELVAAISSNGARTYYADSVKGRFTISRDNAKNTVYLQMNSLKPEDTAVYYCDASFYFYSLYGYWGQGTQVTVSS”, the “polyreactivity (PSR sort gate)” value is recorded as “high polyreactivity”.
Consider “QDQLVESAVGLVQAGGSLRLSCDASGSTFDFYDIGWYRQAPGKERELVATIRWSGDTTYYADSVKGRFTISRDNAKNTVYLQMTRLKPEDTAVYYCNADYFGQESWWMDYWGQGTQVTVSS”, for which the “polyreactivity (PSR sort gate)” value is given as “low polyreactivity”.
Consider “QDQLVESCGALLQAGGSLRLSCAASGITIDTYFMGRYRQAPGKETELLAAISNSDGSTYYADSVKGRFTISRDNAKHTVYLPMNSLKPEDTAVYYCNAQSYYSWHLRYDYWGQGTQVTVSS”, for which the “polyreactivity (PSR sort gate)” value is recorded as “high polyreactivity”.
On to “QDQLVESCGGLVQAGGSLRLSCAASGHIFIYYAMGWYRQAPWKERELVAVISGSGGRTYYADSVKGRFTISRDYAKNTVSLQMNSLKPEDTAVYYCAAAVRYYPHYDSWGQGTQVNVSS”, for which the “polyreactivity (PSR sort gate)” value is “low polyreactivity”.
Consider “QDQLVESGGALGQAGGSLRLSCAASGSIFFYYAMGCYRQAPGKEREFVAHITSSEASTHYADSVKGRFTISRDTAKNTVYLQMNSLIPEDTAVYYCAADRYPGHRERDFWGQGSQVTVSS”, for which the “polyreactivity (PSR sort gate)” value is listed as “low polyreactivity”.
With “QDQLVESGGALVQAGGSLRLSCAASGFTFYKNAMGWYRQAPGKERELVAAISADGGRTYYADSVKGRFTISRDNAKNTVYLQMNSLKPEDTAVYYCAADKRLFRRPKTYDLWGQGTQVTVSS”, the “polyreactivity (PSR sort gate)” value is “high polyreactivity”.
As for “QDQLVESGGALVQAGGSLRLSCAPSGGTFWIYAMGWYRQAPGKERELVAGITTSGATTYYADSVKGRFTISRDNAKNTVYLQMNSLKPVDTAVYYCAADEYYRYEYWGHGTQVTVSS”, the “polyreactivity (PSR sort gate)” value is “low polyreactivity”.
“QDQLVESGGCLVQAGGSLRLSCAASGSIFTKYAMGWYRQAPGKERELVAAIDVNGGSTRYADSVKGRFTISRDNAKNTVYLQMNSLKPEDTAVYYCAKDYTASYYPQGLYDYWGQGTQVTVSS”: the “polyreactivity (PSR sort gate)” value is given as “low polyreactivity”.
Regarding “QDQLVESGGCLVQAGGSLRLSCAASGSTFRSNAMGWYRQAPGKERELVAAISRGGSTNYADSVKGRFTISRDNAKNTVYLQMNSLKTEDTAVYYCNADWDYRDFYDITYDYWGQGTQVTVSS”, the “polyreactivity (PSR sort gate)” value is recorded as “low polyreactivity”.
For the sequence “QDQLVESGGCLVQAGGSLRLSCADSGSNFWYYAMVWYRQAPGKERELVAAITSAGSTYYADSVKGRFTISRDNAKITVYLQINSLKPEDTAVYYCAKVKAWSEYYYWGQGTQVTVSS”, the “polyreactivity (PSR sort gate)” value is reported as “low polyreactivity”.
For “QDQLVESGGGIVQAGGSLRLSCAASGFTFHNNVMGWNRQAPGKERELVATISKSGGSTYYADSVKGRFTISRDNAKNTVYLQMNSLKPEDTAVYYCAGRYRDYGRYGYWGQGTQVTVSS” the value was “high polyreactivity”; for “QDQLVESGGGIVQAGGSLRLSCAASGSTFDFNAMGWYRQAPGKERELVASISWETGGTYADSVKGRFTISRDNGKNTVYLQMKSLNPEDTAVYYCAARPDYFIFEYWGQGTQVTVSS”, “low polyreactivity”; for “QDQLVESGGGLDQAGGSLRLICAASGRIFIYYAMGWYRQAPGKETELVAAISSTGTTNYADSVKGRFTISRDNAKNTVYLQMTSLKPEDTAVYFCAARVRTATRRFTSYSWGQGTQVTVSS”, “high polyreactivity”.
Consider “QDQLVESGGGLDQAGGSLRLSCAASGFTFIRYAMGWYRQAPGKERELVATITRSGGSTYYADSVKGRFTISRDHAKNTVYLQMNSLKPEDTAVYYCAKRGTLGSYYYWGQGTQVTVSS”, for which the “polyreactivity (PSR sort gate)” value was “high polyreactivity”.
As for “QDQLVESGGGLDQAGGSLRLSCAASGRIFALNAMGWYRQAPGKERELVATIRWRGGSTYYADSVKGRFTISRDYAKNTVYLQMNSLKPEDTAVYYCASYSGNRRTYDYWGQGTQVTVSS”, the “polyreactivity (PSR sort gate)” value is recorded as “high polyreactivity”.
As to “QDQLVESGGGLDQAGGSLRLSCAASGRIFDVYAMGWYRQAPGKERELVAAISWSGSSTYYADSVKGRFTISRDNAKNTVYLQMNSLKPEDTAVYSCATVLRVTRVDYWGQGTQVTVSS”, the “polyreactivity (PSR sort gate)” value is recorded as “high polyreactivity”.
As for “QDQLVESGGGLDQEGGSLRLSCAASGIFSYEAMGWNRQAPGKERELVATISRRGSSTYYADSVKGRFTISRDNAKNTVYLQMNSLKPEDSAVYYCAAVRYISPAFLPASSYELGYWGQGSQVTVSS”, the “polyreactivity (PSR sort gate)” value is “low polyreactivity”.
Regarding “QDQLVESGGGLVHAGGSHRFSCAASGFTFGAYAMGWSRQAPGKERELVATITNSGRTYYADSVKGRFTISRDNAKNTVYLQMNSLKPEDTAVYYCAAQPDGQAMEHWGQGTQVTVSS”, the “polyreactivity (PSR sort gate)” value is recorded as “low polyreactivity”.
As to “QDQLVESGGGLVQAAGSLRLTCAASGLTFAYYAMGWNRQAPGKERELVAAISWNGGRTYYADSVKGRFTISRDNAKNTVYLQMNSLKPEDTAVDYCAAEVTSSFYWGQGSQVTVSS”, the “polyreactivity (PSR sort gate)” value is “high polyreactivity”.
In the case of “QDQLVESGGGLVQAGASRRLRCAASGSIFGRNTMGWYRQAPGKESELVAAISSGGRTYYADSVKGRFTISRDNAKYTVFLQMNSLKPEDTAVYYCAAALRRRRADFDYWGQGTQVTVSS” it was “high polyreactivity”; in that of “QDQLVESGGGLVQAGCSLRLSCAASGSTFRTYAMGWYRQAPGKERDLVAAIRRGGSTKYADSVKGRFTISRDNAKYTVYLQINSLIPEDTELYYCAAVTYVPRSTNGISLYDYWGQGTQVTVSS”, “high polyreactivity”; in that of “QDQLVESGGGLVQAGGILSLICAASGITFHSNDMGWYRQAPGKERELVAAISWSDDTTYYADSVKGRFTISRDNAKNTVYLQMNSLKPEDTAVYYCAAEFFGSYGYYEYDYWGQGSQVTVSS”, “high polyreactivity”.
In the case of “QDQLVESGGGLVQAGGRLRLSCAASGSIFLRNAIGWYRQAPGKERDLVAAISKSGGSTYYADSVKGRFTISRDNAKNTVYLQMNSLKPEDTAVYYCAARTTYLYGMYYWGQGTQVTVSS” it was “low polyreactivity”.
In the case of “QDQLVESGGGLVQAGGRLRLSCAASVRIFWVNAMGWYRQAPGKERELVAAISWTSGSTYYADSVKGRFTISRDHANNTVYLMMNSLKPEDTAVYYCNKVQSGEYDYWGQGTQVTVSS” it was “high polyreactivity”; in that of “QDQLVESGGGLVQAGGSHRLSCAASGSTFGVNDMGWYRQAPGKERELVARITGGGSTYYADSVKGRFTISRDNAKNTVYLQMNSLKPEDTAVYYCNAAFWAPQATGYYYWGQGTQVTVSS”, “low polyreactivity”; in that of “QDQLVESGGGLVQAGGSLRISSAASGRTYKSNAMGWYRQAPGKERELVATISRGGGSTYYADSVKGRFTISRDNAKNTVYLQMNSLKPEDTAVYYCAKGSNSYLRYHYTYPYDYWGQGTQVTVSS”, “high polyreactivity”.
Regarding “QDQLVESGGGLVQAGGSLRLICAASGLIFGFYAMGWYRQAPGKERELVAAINTGGITYYADSVKGRFTISRDNAKYTVYLQMNSLKPEDTAVYYCNKDSHISTAYDYWGQGTQVTVSS”, the “polyreactivity (PSR sort gate)” value is “low polyreactivity”.
On to “QDQLVESGGGLVQAGGSLRLICAASGMGWFRQAPGKEREFVAVIRWSSGSTYYADSVKGRFTISRDNAKNTVYLQMNSLKPEDTAVYYCAAGGYPSLLHDYDYWGQGTQVTVSS”, for which the “polyreactivity (PSR sort gate)” value is “low polyreactivity”.
On to “QDQLVESGGGLVQAGGSLRLICDASGSILWHYAMGWYRQAPGTEREWVAAITQRGGSTYYADSEKGRFTISRDTAKYNVYLQMNSLKPEDTAVYYFNTYPTRTYPSYYYWRQGTQVTVSS”, for which the “polyreactivity (PSR sort gate)” value is “high polyreactivity”.
As for “QDQLVESGGGLVQAGGSLRLRCAASGLILANYAMGCYRPAPVKERELVAAISSSGGSKYYADSVKGRFTISRDNAKHTVYFQMNSLKPEDTAVYDCAAYPLYRRRWTGDYWGQGTQVTVSS”, the “polyreactivity (PSR sort gate)” value was “high polyreactivity”.
Consider “QDQLVESGGGLVQAGGSLRLSCAASASTFPYNPMGRYRQAPRKERELVAAITATDDSTYYADSVKGRFTISRDNAKNTVYLQMNSLKPEDTAVYYCAADFGGYVFYFGYDYWGQGTQVTVSS”, for which the “polyreactivity (PSR sort gate)” value is reported as “low polyreactivity”.
For “QDQLVESGGGLVQAGGSLRLSCAASGFIFAYNAMGWYRQGPGKESELVAGITWNGGSTYYADSVKGRFTISRDNAKNSVYLQMNRLKPEETAVYYCAARRTWGYIYRLGYGMDYWGQGTQVTVSS” the value was “high polyreactivity”; for “QDQLVESGGGLVQAGGSLRLSCAASGFIFDLYAMGWYRQAPGKERELVAVISYDGGSTYYADSVKGRFTISRDNAKNTVYLQMNSLKPVDTAVYYCNTYAGLVSPSDLYDYWGQGTQVTVSS”, “low polyreactivity”.
In the case of “QDQLVESGGGLVQAGGSLRLSCAASGFIFDQYAMGWYRQPPGKERELVAAITSGGDTNYADSVKGRFTISRDNAKNTVYLQMNSLKPEDTAVYYCNAAARGSSFDYWGQGTQVTVSS” it was “low polyreactivity”.
In the case of “QDQLVESGGGLVQAGGSLRLSCAASGFIFGLNAMGWYRQAPGKERELVASISRRCGSTYYAYSVKGRFTISRDNAKNTVYLQMNSLKPEDTAVYYCASDTLGGTSLGDYWGQGIQVTVSS” it was “high polyreactivity”.
